One block for each binder: values may come before it.
How the values were obtained:
Gal4 DBD-Pan1^792–948 = biological target: T1, Gal4 DBD-Pan1^792–948 (yeast, UniProt P32521 792-948); test: two-hybrid
T1 sequence (looked up): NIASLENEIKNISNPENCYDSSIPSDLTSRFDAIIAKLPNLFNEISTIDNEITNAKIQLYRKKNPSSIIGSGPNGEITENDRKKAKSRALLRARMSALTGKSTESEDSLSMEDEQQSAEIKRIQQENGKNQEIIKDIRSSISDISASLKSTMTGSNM

Gal4 DBD-Pan1^687–1190 = biological target: T2, Gal4 DBD-Pan1^687–1190 (yeast, UniProt P32521 687-1190); test: two-hybrid
T2 sequence (looked up): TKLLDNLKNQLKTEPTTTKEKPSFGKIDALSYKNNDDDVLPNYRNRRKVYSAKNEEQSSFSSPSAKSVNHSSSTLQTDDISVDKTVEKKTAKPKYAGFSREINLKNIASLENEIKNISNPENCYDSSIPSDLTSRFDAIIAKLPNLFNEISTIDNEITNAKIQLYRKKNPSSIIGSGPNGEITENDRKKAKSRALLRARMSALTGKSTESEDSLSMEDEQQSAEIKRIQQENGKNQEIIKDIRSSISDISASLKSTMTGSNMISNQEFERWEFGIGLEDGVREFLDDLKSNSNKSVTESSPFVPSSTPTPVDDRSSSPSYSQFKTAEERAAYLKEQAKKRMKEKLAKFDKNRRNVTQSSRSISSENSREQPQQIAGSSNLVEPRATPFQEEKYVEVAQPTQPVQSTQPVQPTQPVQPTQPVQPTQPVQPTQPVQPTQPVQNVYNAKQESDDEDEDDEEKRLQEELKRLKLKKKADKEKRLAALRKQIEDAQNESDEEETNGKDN

Gal4 DBD-Pan1^687–846 = biological target: T3, Gal4 DBD-Pan1^687–846 (yeast, UniProt P32521 687-846); test: two-hybrid
T3 sequence (looked up): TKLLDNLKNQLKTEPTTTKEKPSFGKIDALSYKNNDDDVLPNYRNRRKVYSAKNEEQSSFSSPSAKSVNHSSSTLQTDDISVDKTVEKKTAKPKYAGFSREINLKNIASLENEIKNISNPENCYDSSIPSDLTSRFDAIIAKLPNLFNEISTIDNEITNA

[1] = biological target: T4, Pan1 (recombinantly purified, unpublished data) (yeast, UniProt P32521 1-1480)
T4 sequence (looked up): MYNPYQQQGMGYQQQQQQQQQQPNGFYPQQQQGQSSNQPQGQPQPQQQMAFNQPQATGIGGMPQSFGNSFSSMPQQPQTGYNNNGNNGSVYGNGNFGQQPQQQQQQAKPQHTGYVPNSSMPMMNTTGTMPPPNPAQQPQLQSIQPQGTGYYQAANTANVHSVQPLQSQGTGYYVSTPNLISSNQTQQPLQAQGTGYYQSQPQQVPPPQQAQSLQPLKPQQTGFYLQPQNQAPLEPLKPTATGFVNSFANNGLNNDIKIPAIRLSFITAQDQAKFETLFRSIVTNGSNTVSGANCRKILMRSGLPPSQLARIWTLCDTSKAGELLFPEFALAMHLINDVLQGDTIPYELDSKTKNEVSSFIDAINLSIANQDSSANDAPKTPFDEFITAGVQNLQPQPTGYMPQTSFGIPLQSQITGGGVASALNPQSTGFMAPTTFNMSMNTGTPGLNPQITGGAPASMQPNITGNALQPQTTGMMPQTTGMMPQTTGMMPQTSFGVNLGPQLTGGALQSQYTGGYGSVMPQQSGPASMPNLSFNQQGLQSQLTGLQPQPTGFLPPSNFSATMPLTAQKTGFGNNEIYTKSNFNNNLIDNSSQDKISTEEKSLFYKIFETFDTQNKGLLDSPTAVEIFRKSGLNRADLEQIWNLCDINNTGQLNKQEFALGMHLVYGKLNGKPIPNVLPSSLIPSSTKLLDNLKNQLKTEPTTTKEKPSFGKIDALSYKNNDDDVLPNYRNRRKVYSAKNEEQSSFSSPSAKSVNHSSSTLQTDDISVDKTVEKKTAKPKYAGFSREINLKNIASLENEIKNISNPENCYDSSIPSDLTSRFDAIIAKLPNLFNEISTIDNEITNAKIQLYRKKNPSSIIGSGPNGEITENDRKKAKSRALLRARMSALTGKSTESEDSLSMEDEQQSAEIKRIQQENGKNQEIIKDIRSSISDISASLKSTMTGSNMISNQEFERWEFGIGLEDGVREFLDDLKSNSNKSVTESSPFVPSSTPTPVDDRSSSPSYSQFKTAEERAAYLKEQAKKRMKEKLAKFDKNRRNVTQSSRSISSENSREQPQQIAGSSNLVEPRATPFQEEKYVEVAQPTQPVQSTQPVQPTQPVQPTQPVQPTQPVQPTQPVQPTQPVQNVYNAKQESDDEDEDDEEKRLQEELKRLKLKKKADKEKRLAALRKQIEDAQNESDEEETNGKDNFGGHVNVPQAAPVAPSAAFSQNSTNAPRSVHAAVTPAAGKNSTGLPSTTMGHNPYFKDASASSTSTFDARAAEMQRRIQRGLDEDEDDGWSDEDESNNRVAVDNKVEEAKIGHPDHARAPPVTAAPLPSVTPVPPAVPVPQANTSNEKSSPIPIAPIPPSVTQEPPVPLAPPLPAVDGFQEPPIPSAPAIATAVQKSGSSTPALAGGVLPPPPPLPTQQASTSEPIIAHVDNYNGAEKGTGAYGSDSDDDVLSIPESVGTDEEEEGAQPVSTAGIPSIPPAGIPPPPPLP

Miller Units (Gal4 DBD-Pan1^792–948): 99.7 Miller Units | Miller Units (Gal4 DBD-Pan1^687–1190): 412 Miller Units | Miller Units (Gal4 DBD-Pan1^687–846): 80.1 Miller Units
B1: Gal4 AD-End3^176–349 (domain or fragment, yeast, UniProt P39013 176-349, looked up)
chain: LINPQNLPSIDRDPTFYFIHCLRQRNDLGAEIPASLPNSLAEVCNKKQLSYDLRSSQPPTKRKEEANEVDNLRDNGQNSSSDSSGSNVLSNEDSIKQKYASLTDDQVANMREQLEGLLNYKKSEKTQGGSKLSKRINIRSITDDLDNIEQQVEVLENYLNNKRHELQALQAEIN

stoichiometry N [1]: 1
B2: End3 (recombinantly purified, unpublished data) (natural protein, yeast, UniProt P39013 1-349, looked up)
chain: MPKLEQFEIKKYWQIFSGLKPIENKVNHDQVLPILYNSKLDSSVLNKIWFLADIDDDDNLDFEEFVICMRLIFDMVNKNISSVPDELPDWLIPGSKVNLIKERKKRKQIENADLPPKKEIKVDWYMSPDDLNQYEKIYNSCAKLTDGTITFNELSTKLSTKFFNISKTDLNKVWSLINPQNLPSIDRDPTFYFIHCLRQRNDLGAEIPASLPNSLAEVCNKKQLSYDLRSSQPPTKRKEEANEVDNLRDNGQNSSSDSSGSNVLSNEDSIKQKYASLTDDQVANMREQLEGLLNYKKSEKTQGGSKLSKRINIRSITDDLDNIEQQVEVLENYLNNKRHELQALQAEIN

Reference: publication PMC3855908 (Traffic (Copenhagen, Denmark), 2013)
